Test results from the supplement of paper PMC11246515.
± gives the standard deviation of the averaged measurements.

Assay: total protein half-life in vivo (active degradation + dilution); higher = more stable protein
[1] = E. coli NCM3722 delta-clpP delta-lon delta-hslV, growth: N-lim chemostat, doubling time 6 h
[2] = E. coli NCM3722 delta-hslV, growth: N-lim chemostat, doubling time 6 h
[3] = E. coli NCM3722 delta-lon, growth: N-lim chemostat, doubling time 6 h
[4] = E. coli NCM3722 delta-smpB, growth: N-lim chemostat, doubling time 6 h
[5] = wild type E. coli NCM3722, growth: C-lim chemostat, doubling time 3 h
[6] = wild type E. coli NCM3722, growth: C-lim chemostat, doubling time 6 h
[7] = wild type E. coli NCM3722, growth: C-lim chemostat, doubling time 12 h
[8] = wild type E. coli NCM3722, growth: N-lim chemostat, doubling time 6 h
[9] = wild type E. coli NCM3722, growth: N-lim chemostat, doubling time 12 h
[10] = wild type E. coli NCM3722, growth: P-lim chemostat, doubling time 6 h
[11] = wild type E. coli NCM3722, growth: P-lim chemostat, doubling time 12 h
[12] = E. coli NCM3722 delta-clpP, growth: N-lim chemostat, doubling time 6 h

| Sequence | total protein half-life in vivo [1] | total protein half-life in vivo [2] | total protein half-life in vivo [3] | total protein half-life in vivo [4] | total protein half-life in vivo [5] | total protein half-life in vivo [6] | total protein half-life in vivo [7] | total protein half-life in vivo [8] | total protein half-life in vivo [9] | total protein half-life in vivo [10] | total protein half-life in vivo [11] | total protein half-life in vivo [12] |
| --- | --- | --- | --- | --- | --- | --- | --- | --- | --- | --- | --- | --- |
| MLKRVFLSLLVLIGLLLLTVLGLDRWMSWKTAPYIYDELQDLPYRQVGVVLGTAKYYRTGVINQYYRYRIQGAINAYNSGKVNYLLLSGDNALQSYNEPMTMRKDLIAAGVDPSDIVLDYAGFRTLDSIVRTRKVFDTNDFIIITQRFHCERALFIALHMGIQAQCYAVPSPKDMLSVRIREFAARFGALADLYIFKREPRFLGPLVPIPAMHQVPEDAQGYPAVTPEQLLELQKKQGK [P0AFY2] | 5.75 ± 0.44 h | 6.88 ± 0.82 h | 5.72 ± 0.66 h | 6.021 ± 0.027 h | 3.1 ± 0.074 h | 5.81 ± 0.24 h | 10.9 ± 0.74 h | 5.85 ± 0.23 h | 11.6 ± 1.1 h | 5.92 ± 0.26 h | 12.3 ± 0.33 h | – |
| MIISEMQRKLATWAATDPSLRIQRLLRLITQPEWLAEAARITLSSKGAHTPGVDGVNKTMLQARLAVELQILRDELLSGHYQPLPARRVYIPKSNGKLRPLGIPALRDRIVQRAMLMAMEPIWESDFHTLSYGFRPERSVHHAIRTVKLQLTDCGETRGRWVIEGDLSSYFDTVHHRLLMKAVRRRISDARFMTLLWKTIKAGHIDVGLFRAASEGVPQGGVISPLLSNIMLNEFDQYLHERYLSGKARKDRWYWNNSIQRGRSTAVRENWQWKPAVAYCRYADDFVLIVKGTKAQVEAIREECRGVLEGSLKLRLNMDKTKIPHVNDGFIFLGHRLIRKRSRYGEMRVVSTIPQEKARNFAASLTALLWKVRISGEILLG | 4.72 ± 0.55 h | – | – | – | – | – | – | – | – | – | – | – |
| MTETIKVSESLELHAVAENHVKPLYQLICKNKTWLQQSLNWPQFVQSEEDTRKTVQGNVMLHQRGYAKMFMIFKEDELIGVISFNRIEPLNKTAEIGYWLDESHQGQGIISQALQALIHHYAQSGELRRFVIKCRVDNPQSNQVALRNGFILEGCLKQAEFLNDAYDDVNLYARIIDSQ | 4.21 ± 0.68 h | 3.75 ± 0.27 h | 3.31 ± 0.19 h | 4.22 ± 0.22 h | 3.18 ± 0.37 h | 5.79 ± 0.19 h | 8.82 ± 2.3 h | 4.47 h | 6.48 ± 0.098 h | 5.61 ± 0.16 h | 13.7 ± 0.43 h | 4.2 ± 0.35 h |
| MAKQDYYEILGVSKTAEEREIRKAYKRLAMKYHPDRNQGDKEAEAKFKEIKEAYEVLTDSQKRAAYDQYGHAAFEQGGMGGGGFGGGADFSDIFGDVFGDIFGGGRGRQRAARGADLRYNMELTLEEAVRGVTKEIRIPTLEECDVCHGSGAKPGTQPQTCPTCHGSGQVQMRQGFFAVQQTCPHCQGRGTLIKDPCNKCHGHGRVERSKTLSVKIPAGVDTGDRIRLAGEGEAGEHGAPAGDLYVQVQVKQHPIFEREGNNLYCEVPINFAMAALGGEIEVPTLDGRVKLKVPGETQTGKLFRMRGKGVKSVRGGAQGDLLCRVVVETPVGLNERQKQLLQELQESFGGPTGEHNSPRSKSFFDGVKKFFDDLTR | – | 4.941 ± 0.031 h | 6.155 ± 0.042 h | 4.51 ± 0.36 h | 2.67 ± 0.034 h | 4.97 ± 0.22 h | 9.44 ± 0.52 h | 4.9 ± 0.55 h | 8.73 ± 0.55 h | 5.193 ± 0.045 h | 11.41 ± 0.11 h | 6.07 ± 0.65 h |
| MLQVYLVRHGETQWNAERRIQGQSDSPLTAKGEQQAMQVATRAKELGITHIISSDLGRTRRTAEIIAQACGCDIIFDSRLRELNMGVLEKRHIDSLTEEEENWRRQLVNGTVDGRIPEGESMQELSDRVNAALESCRDLPQGSRPLLVSHGIALGCLVSTILGLPAWAERRLRLRNCSISRVDYQESLWLASGWVVETAGDISHLDAPALDELQR [P0A7A2] | 4.23 ± 1.4 h | 2.36 ± 0.011 h | 2.852 ± 0.012 h | 2.65 ± 0.051 h | 2.75 ± 0.28 h | 4.55 ± 0.27 h | 7.06 ± 0.16 h | 2.71 ± 0.11 h | 3.84 ± 0.45 h | 4.88 ± 0.12 h | 8.06 ± 1 h | 2.57 ± 0.17 h |
| MYHDVSYLLSRLINGPLSLRQIYFASSNGPVPDLAYQVDFPRLEIVLEGEFVDTGAGATLVPGDVLYVPAGGWNFPQWQAPATTFSVLFGKQQLGFSVVQWDGKQYQNLAKQHVARRGPRIGSFLLQTLNEMQMQPQEQQTARLIVASLLSHCRDLLGSQIQTASRSQALFEAIRDYIDERYASALTRESVAQAFYISPNYLSHLFQKTGAIGFNEYLNHTRLEHAKTLLKGYDLKVKEVAHACGFVDSNYFCRLFRKNTERSPSEYRRQYHSQLTEKPTTPE | 5.77 ± 0.063 h | 4.1 h | 5.72 ± 1.3 h | 4.21 ± 0.49 h | 2.6 h | 6.09 ± 1.5 h | 8.5207 ± 0.0056 h | 3.8 ± 0.55 h | 6.04 h | 3.26 h | 5.79 ± 0.83 h | 3.94 h |
| MNVIRTEIEDVLILEPRVFGDDRGFFYESFNQSAFEHILGYPVSFVQDNHSRSSKNVLRGLHFQRGEYAQDKLVRCTHGAVFDVAVDIRPNSVSFGKWVGVLLSADNKQQLWIPKGFAHGFLVLSDIAEFQYKTTNYYHPESDCGICWNDERIAIDWPQTSGLILSPKDERLFTLDELIRLKLIA | 6.28 h | – | 3.33 ± 0.14 h | – | – | – | – | – | 3.7 h | – | – | – |
